PMC7885793 (Biochemistry, 2019)

Key:
[1] = molecular target: T1, PLCβ3 ΔXY1 (Homo sapiens, UniProt Q01970 10-1234, ΔXY1 (residues 471–569)); assay: cell-based or functional assay
T1 sequence (looked up): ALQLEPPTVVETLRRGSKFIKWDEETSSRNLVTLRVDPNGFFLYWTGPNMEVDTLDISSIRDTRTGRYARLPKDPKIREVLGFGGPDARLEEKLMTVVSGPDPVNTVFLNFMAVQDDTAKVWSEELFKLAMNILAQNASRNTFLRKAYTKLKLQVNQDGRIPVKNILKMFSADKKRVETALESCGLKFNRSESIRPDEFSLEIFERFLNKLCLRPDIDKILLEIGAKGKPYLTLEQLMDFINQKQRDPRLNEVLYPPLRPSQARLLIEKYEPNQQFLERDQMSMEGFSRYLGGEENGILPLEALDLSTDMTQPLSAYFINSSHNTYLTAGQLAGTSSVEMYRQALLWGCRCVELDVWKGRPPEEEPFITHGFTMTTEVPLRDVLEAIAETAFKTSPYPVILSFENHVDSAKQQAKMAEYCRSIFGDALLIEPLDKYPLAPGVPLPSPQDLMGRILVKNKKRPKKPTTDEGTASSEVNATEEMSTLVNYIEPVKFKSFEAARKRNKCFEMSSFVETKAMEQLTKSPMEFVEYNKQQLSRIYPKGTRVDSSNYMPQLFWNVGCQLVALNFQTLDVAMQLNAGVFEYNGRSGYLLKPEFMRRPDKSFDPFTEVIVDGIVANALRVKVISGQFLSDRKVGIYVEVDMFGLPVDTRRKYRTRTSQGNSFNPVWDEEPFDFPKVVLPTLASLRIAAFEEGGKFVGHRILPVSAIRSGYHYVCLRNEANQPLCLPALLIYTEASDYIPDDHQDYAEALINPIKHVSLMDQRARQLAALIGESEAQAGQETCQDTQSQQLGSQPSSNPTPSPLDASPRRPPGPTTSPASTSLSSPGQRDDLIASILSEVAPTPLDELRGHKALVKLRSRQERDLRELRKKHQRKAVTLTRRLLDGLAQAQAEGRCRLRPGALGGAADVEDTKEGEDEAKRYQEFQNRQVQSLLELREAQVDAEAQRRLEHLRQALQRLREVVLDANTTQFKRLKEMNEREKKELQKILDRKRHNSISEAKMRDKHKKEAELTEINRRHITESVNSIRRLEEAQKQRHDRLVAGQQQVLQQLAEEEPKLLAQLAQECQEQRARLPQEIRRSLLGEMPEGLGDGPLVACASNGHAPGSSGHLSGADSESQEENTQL

[2] = molecular target: T2, Homo sapiens PLCβ3 (residues 10–1234) (Homo sapiens, UniProt Q01970 10-1234); assay: cell-based or functional assay
T2 sequence (looked up): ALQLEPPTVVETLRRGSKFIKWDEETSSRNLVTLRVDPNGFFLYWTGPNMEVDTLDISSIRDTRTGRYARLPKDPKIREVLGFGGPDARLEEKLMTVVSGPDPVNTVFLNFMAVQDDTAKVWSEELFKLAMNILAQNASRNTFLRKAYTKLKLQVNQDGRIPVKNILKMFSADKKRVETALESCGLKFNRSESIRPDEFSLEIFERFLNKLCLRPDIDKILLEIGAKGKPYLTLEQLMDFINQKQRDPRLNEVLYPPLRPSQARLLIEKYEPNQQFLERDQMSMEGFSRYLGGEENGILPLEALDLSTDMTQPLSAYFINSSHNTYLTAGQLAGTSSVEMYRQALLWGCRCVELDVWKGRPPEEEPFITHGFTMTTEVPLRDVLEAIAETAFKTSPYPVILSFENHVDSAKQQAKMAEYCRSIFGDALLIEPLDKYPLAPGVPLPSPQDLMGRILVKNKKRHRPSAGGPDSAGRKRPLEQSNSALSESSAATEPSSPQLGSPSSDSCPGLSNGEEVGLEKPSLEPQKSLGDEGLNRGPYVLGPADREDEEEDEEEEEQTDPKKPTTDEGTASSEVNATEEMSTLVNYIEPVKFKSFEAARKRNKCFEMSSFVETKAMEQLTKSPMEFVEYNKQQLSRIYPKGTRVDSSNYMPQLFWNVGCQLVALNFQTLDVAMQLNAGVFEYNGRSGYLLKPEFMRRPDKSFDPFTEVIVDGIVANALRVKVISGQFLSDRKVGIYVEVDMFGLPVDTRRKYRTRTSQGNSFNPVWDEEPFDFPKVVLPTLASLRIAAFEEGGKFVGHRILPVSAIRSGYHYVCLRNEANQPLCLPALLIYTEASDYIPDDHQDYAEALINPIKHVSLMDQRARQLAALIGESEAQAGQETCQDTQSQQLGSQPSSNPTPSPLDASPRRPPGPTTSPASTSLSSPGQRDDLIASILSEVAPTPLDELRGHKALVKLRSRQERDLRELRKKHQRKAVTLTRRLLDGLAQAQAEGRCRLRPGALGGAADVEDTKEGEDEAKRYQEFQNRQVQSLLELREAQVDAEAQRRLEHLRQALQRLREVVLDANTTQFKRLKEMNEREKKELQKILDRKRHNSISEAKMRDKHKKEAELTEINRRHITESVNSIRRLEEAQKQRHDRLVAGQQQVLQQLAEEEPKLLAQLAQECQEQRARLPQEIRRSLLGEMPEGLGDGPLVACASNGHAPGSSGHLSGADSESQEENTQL

x-fold maximum activity over basal (complex against the PLCβ3 variant alone) [1]: 4 x-fold | x-fold maximum activity over basal (complex against the PLCβ3 variant alone) [2]: 8 x-fold
B1: Activated Gαq (Gαq·GDP-ALF4^−) (natural protein, murine, UniProt P21279 7-359, looked up)
chain: MACCLSEEAKEARRINDEIERQLRRDKRDARRELKLLLLGTGESGKSTFIKQMRIIHGSGYSDEDKRGFTKLVYQNIFTAMQAMIRAMDTLKIPYKYEHNKAHAQLVREVDVEKVSAFENPYVDAIKSLWNDPGIQECYDRRREYQLSDSTKYYLNDLDRVADPSYLPTQQDVLRVRVPTTGIIEYPFDLQSVIFRMVDVGGQRSERRKWIHCFENVTSIMFLVALSEYDQVLVESDNENRMEESKALFRTIITYPWFQNSSVILFLNKKDLLEEKIMYSHLVDYFPEYDGPQRDAQAAREFILKMFVDLNPDSDKIIYSHFTCATDTENIRFVFAAVKDTILQLNLKEYNLV
